Reference: publication doi:10.1101/2022.04.15.488344 (bioRxiv, 2022)

Target: the molecule itself
Test: crystal structure

B1: ERα ligand binding domain (LBD) (305–555) with a Y537S mutation (domain or fragment, UniProt P03372 305-555, looked up)
chain: SLALSLTADQMVSALLDAEPPILYSEYDPTRPFSEASMMGLLTNLADRELVHMINWAKRVPGFVDLTLHDQVHLLECAWLEILMIGLVWRSMEHPGKLLFAPNLLLDRNQGKCVEGMVEIFDMLLATSSRFRMMNLQGEEFVCLKSIILLNSGVYTFLSSTLKSLEEKDHIHRVLDKITDTLIHLMAKAGLTLQQQHQRLAQLLLILSHIRHMSNKGMEHLYSMKCKNVVPLSDLLLEMLDAHRLHAPTSR
stoichiometry N: 2
